Laboratory results from patent US7807153 (Genentech, dated 2010).

Target: T1, DR4 expressed in transfected CHO cells (UniProt O00220 24-468, limits assumed)
T1 construct: whole, on cells; also called DR4-transfected CHO cells; DR4-transfected cells
Experiment: immunohistochemistry on sections of transfected CHO cells
Procedure: CHO cells were transfected with vector alone or vector containing the gene for Apo-2 or DR4. The transfected cells were removed from culture plates, pelleted, and washed twice with PBS. The pellets were then resuspended in O.C.T. (Fisher), flash frozen in isopentain and LN_2, and later sectioned using standard protocols. Staining of the sectioned cells was performed using a Vectastain Elite ABC kit. […] The secondary antibody employed was either a biotinylated anti-c-myc 9E10 antibody or anti-Penta His antibody (Qiagen) followed by biotinylated anti-mouse IgG.

- binding result: no binding
B1: single chain antibody (scFv) fragment 16E2 (scFv)
scFv: EVQLVQSGGGVERPGGSLRLSCAASGFTFDDYGMSWVRQAPGKGLEWVSGINWNGGSTGYADSVKGRVTISRDNAKNSLYLQMNSLRAEDTAVYYCAKILGAGRGWYFDLWGKGTTVTVSSGGGGSGGGGSGGGGSSELTQDPAVSVALGQTVRITCQGDSLRSYYASWYQQKPGQAPVLVIYGKNNRPSGIPDRFSGSSSGNTASLTITGAQAEDEADYYCNSRDSSGNHVVFGGGTKLTVLGAAAHHHHHHGAAEQKLISEEDLNGAA
notes: Purified by IMAC from E. coli; also called 16E2 antibody; anti-Apo-2 antibody 16E2
